The text below walks through data of patent US20250304709A1 (Eli Lilly, published 2025).

Assay [1] concerns the target T1, human L1CAM-hIgG1-Fc (human, UniProt P32004 20-1120, limits assumed).
T1 construct: also called hL1CAM; not shown: human IgG1 Fc
Description: SPR, Biacore T200, 25 C, MBM captured by human Fab capture kit, KD=koff/kon (column head prints pM; text says molar units). Here is the method:
(§1) A human Fab capture kit (Cytiva P/N 28958325) is immobilized on a CM5 chip (Cytiva P/N 29104988) using standard NHS-EDC amine coupling on all four flow cells (Fc). Multispecific binding molecules (“MBM1” of Table 2, with or without conjugated siRNA (denoted by *) as described above) are prepared at 10 μg/mL by dilution into running buffer. Target (e.g., mouse TFR-mIgG1-Fc, mouse L1CAM-hIgG1-Fc and human L1CAM-hIgG1-Fc, respectively) are prepared at final concentrations of 100.0, 25.0, 6.25, 1.56, 0.39, 0.097, 0.024 and 0 (blank) nM by dilution into running buffer.
(§2) Each analysis cycle consists of (1) capturing multispecific binding molecule samples on separate flow cells (Fc2, Fc3 and Fc4); (2) injection of the respective concentration for the blood brain barrier target (e.g., TFR) over all Fc at 10 μL/min for 60 seconds followed by return to buffer flow for 1800 seconds to monitor dissociation phase; (3) injection of each human L1CAM concentration over all Fc at 100 μL/min for 120 seconds followed by return to buffer flow for 1200 seconds to monitor dissociation phase; (4) regeneration of chip surfaces with injection of 10 mM glycine, pH 1.5, for 30 seconds at 10 μL/min over all cells; and (5) equilibration of chip surfaces with a 10 μL (60-sec) injection of HBS-EP+. Data are processed using standard double-referencing and fit to a 1:1 binding model using Biacore T200 Evaluation software, version 2.0.3, to determine the association rate (kₒₙ, M⁻¹s⁻¹ units), dissociation rate (koff, s⁻¹ units), and Rₘₐₓ (RU units). The equilibrium dissociation constant (KD) is calculated from the relationship KD=koff/kₒₙ, and presented in molar units.
In general terms: Surface plasmon resonance follows binding to a sensor surface in real time, without labels.

For assay [2], the target named is T2, mouse L1CAM-hIgG1-Fc (mouse; human, UniProt P11627 20-1123, limits assumed).
T2 construct: also called mL1CAM; not shown: human IgG1 Fc
The description is as above. Here is the method: as §1, §2

The target of assay [3] is T1, human L1CAM-hIgG1-Fc. Description: SPR, Biacore T200, 25 C, MBM captured by human Fab capture kit, target as analyte, 1:1 fit (column head also prints '(10^-4)', not applied a second time). As to the method:
as §1, §2

In assay [4] the target is T2, mouse L1CAM-hIgG1-Fc. The assay is described as above. Here is the method: as §1, §2
Assay [5] deals with T1, human L1CAM-hIgG1-Fc. The experiment in a line: SPR, Biacore T200, 25 C, MBM captured by human Fab capture kit, target as analyte, 1:1 fit. Here is the method: as §1, §2
Assay [6] concerns the target T2, mouse L1CAM-hIgG1-Fc. The description is as above. Here is the method: as §1, §2

T2 sequence (P11627 20-1123 limits assumed): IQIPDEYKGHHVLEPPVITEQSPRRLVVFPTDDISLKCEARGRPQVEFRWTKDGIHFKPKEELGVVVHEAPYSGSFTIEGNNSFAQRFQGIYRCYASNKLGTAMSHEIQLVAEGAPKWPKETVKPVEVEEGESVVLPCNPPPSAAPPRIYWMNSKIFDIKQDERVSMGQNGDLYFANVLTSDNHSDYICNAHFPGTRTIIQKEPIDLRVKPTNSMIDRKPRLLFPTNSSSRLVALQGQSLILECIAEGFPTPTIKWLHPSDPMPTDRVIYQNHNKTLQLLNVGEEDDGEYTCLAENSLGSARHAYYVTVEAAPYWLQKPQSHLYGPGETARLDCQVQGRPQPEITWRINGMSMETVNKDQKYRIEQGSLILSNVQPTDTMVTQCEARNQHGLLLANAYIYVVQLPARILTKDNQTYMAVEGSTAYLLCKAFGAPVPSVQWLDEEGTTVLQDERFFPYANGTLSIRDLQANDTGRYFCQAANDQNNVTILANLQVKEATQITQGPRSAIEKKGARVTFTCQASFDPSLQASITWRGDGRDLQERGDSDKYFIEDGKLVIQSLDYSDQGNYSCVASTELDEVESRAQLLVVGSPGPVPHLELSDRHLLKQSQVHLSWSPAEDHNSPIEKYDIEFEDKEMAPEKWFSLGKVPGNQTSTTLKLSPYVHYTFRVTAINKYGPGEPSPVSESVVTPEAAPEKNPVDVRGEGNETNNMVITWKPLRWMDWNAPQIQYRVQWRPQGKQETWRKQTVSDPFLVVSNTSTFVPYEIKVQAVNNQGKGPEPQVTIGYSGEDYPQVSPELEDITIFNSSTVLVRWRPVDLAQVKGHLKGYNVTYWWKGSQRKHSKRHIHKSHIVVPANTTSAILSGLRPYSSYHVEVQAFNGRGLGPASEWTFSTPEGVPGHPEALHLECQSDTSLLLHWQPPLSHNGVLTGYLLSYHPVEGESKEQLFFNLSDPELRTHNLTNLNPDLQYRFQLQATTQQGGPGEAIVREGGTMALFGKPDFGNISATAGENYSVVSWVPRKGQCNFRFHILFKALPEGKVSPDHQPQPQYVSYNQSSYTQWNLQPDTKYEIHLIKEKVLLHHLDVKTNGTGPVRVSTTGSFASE
T1 sequence (P32004 20-1120 limits assumed): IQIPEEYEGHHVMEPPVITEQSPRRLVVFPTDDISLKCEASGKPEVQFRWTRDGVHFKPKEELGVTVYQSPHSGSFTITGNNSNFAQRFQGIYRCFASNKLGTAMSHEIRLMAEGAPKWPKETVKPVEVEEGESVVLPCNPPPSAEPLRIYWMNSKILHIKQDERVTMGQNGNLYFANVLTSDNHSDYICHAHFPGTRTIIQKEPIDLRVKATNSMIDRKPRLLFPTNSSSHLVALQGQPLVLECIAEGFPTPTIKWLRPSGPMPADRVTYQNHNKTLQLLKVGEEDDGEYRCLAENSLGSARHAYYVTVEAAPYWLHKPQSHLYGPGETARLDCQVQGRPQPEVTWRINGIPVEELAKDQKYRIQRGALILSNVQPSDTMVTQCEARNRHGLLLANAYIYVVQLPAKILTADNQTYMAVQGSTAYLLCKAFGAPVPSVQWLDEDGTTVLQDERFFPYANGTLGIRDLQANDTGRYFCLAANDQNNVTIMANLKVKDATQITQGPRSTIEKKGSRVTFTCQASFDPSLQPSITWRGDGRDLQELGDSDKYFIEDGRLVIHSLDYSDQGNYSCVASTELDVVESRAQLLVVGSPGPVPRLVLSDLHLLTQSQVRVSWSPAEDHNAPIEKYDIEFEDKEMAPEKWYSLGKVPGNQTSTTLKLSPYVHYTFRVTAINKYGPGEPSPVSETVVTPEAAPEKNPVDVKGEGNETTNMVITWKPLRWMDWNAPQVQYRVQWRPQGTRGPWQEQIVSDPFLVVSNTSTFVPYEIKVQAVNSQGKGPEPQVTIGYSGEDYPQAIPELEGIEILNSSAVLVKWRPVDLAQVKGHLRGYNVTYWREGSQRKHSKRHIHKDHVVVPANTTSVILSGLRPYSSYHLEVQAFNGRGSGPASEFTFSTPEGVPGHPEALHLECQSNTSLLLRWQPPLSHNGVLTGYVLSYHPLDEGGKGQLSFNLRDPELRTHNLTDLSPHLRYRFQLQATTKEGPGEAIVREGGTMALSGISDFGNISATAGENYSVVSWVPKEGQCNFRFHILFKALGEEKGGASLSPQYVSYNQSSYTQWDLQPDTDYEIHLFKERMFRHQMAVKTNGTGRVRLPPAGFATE

B1: Exemplified multispecific binding molecule MBM1 with conjugated siRNA (MBM1*) (bispecific antibody, human IgG4 S228P, kappa, F234A L235A)
heavy 1: not shown
light 1: ALDMTQTASPVSAAVGGTVTINCQSSQSVYNNNRLAWYQQKPGQPPKLLIYDASTLASGVPSRFKGSGSGTQFTLTISGVQSDDSATYYCQGTYFSSGWSWAFGGGTEVVVKRTVAAPSVFIFPPSDEQLKSGTASVVCLLNNFYPREAKVQWKVDNALQSGNSQESVTEQDSKDSTYSLSSTLTLSKADYEKHKVYACEVTHQGLSSPVTKSFNRGEC
heavy 2: EVQLVESGGGVVQPGRSLRLSCAASGFTFSRFGMHWVRQAPGKGLEWVAFISNDGSNKYYADSVKGRFTISRDNSKNTLYLQMNSLRPEDTAVYYCARGRAYGSGSLFDPWGQGTLVTVSSASTKGPCVFPLAPCSRSTSESTAALGCLVKDYFPEPVTVSWNSGALTSGVHTFPAVLQSSGLYSLSSVVTVPSSSLGTKTYTCNVDHKPSNTKVDKRVESKYGPPCPPCPAPEAAGGPSVFLFPPKPKDTLMISRTPEVTCVVVDVSQEDPEVQFNWYVDGVEVHNAKTKPREEQFNSTYRVVSVLTVLHQDWLNGKEYKCKVSNKGLPSSIEKTISKAKGQPREPQVYTLPPSQEEMTKNQVSLTCLVKGFYPSDIAVEWESNGQPENNYKTTPPVLDSDGSFLLYSKLTVDKSRWQEGNVFSCSVMHEALHNHYTQKSLSLSLG
light 2: DIQMTQSPSSLSASVGDRVTITCKASQGISRFLSWFQQKPGKAPKSLIYAVSSLVDGVPSRFSGSGSGTDFTLTISSLQPEDFATYYCVQYNSYPYGFGGGTKVEIKRTVAAPSVFIFPPSDEQLKSGTASVVCLLNNFYPREAKVQWKVDNALQSGNSQESVTEQDSKDSTYSLSSTLTLSKADYEKHKVYACEVTHQGLSSPVTKSFNRGEC
modifications: conjugated siRNA (denoted by *); site not stated for the SPR sample; elsewhere 'siRNA linked at HC Constant region 1'
notes: Same four chains as MBM1, with siRNA conjugated
Regarding B1, the values for the Kd in the assay with human L1CAM-hIgG1-Fc [1] and in the assay with mouse L1CAM-hIgG1-Fc [2] were 0.89 nM and 1.2 nM, respectively. Besides, the values for the koff in the assay with human L1CAM-hIgG1-Fc [3] and with mouse L1CAM-hIgG1-Fc [4] were 0.00023 s⁻¹ and 0.00027 s⁻¹, respectively. Besides, the kon in the assay with human L1CAM-hIgG1-Fc [5] turned out to be 260000 M⁻¹ s⁻¹; with mouse L1CAM-hIgG1-Fc [6] it was 220000 M⁻¹ s⁻¹.

B2: Exemplified multispecific binding molecule MBM1 (heterodimeric IgG antibody, TFR arm and L1CAM arm) (bispecific antibody)
heavy 1: not shown
light 1: B1 light 1
heavy 2: B1 heavy 2
light 2: B1 light 2
notes: without siRNA; also called BD1 + BD9
For B2, the Kd was found to be 0.27 nM in the assay with human L1CAM-hIgG1-Fc [1] and 0.51 nM with mouse L1CAM-hIgG1-Fc [2]. Moreover, the koff was determined as 0.00011 s⁻¹ with human L1CAM-hIgG1-Fc [3] and 0.0002 s⁻¹ with mouse L1CAM-hIgG1-Fc [4]. Moreover, the kon with human L1CAM-hIgG1-Fc [5] was determined as 430000 M⁻¹ s⁻¹; with mouse L1CAM-hIgG1-Fc [6], 400000 M⁻¹ s⁻¹.

A word on the Kd: it is the concentration at which binding is half-saturated. A high value points to lower affinity. For orientation: koff means the rate constant with which the complex falls apart. As usually defined, the kon is the rate constant with which the complex forms. A low value points to slower complex formation.
